Results: article PMC7211764

Molecular target: wild-type A3A 1-199 (APOBEC3A) (human) (UniProt P31941)
Test: SEC

wild-type A3A 1-199 (APOBEC3A), P31941 1-199 (enzyme; other documents disagree on this pair), sequence (P31941 whole entry): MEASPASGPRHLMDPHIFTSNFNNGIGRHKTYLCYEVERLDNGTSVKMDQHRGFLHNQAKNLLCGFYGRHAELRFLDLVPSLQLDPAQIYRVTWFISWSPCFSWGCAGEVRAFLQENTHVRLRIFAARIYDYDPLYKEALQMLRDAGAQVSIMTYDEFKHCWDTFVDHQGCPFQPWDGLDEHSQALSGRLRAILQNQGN

stoichiometry N: 2
Substance: wild-type A3A 1-199 (APOBEC3A), P31941 1-199 (enzyme; other documents disagree on this pair)
